The nature of series [1]: Organ distribution of 177Lu-labelled peptides in HT1080 xenograft mice. Particulars: male, BALB/c nu/nu, iv, total radioactivity. In kind it is in vivo, BALB/c nu/nu mice. The protocol: (§1) General procedure for radiolabelling with Lu-177.
(§2) • 50 μL 0.25 M Na-Acetate buffer pH 5.2+0.1% Tween 20; • 10 μL [Lu-177]LuCl3 in 0.05 M HCl; and • 2 μL of the diluted peptide (2 nmols). […]
(§3) Organ distribution studies, general method: For organ distribution, the respective dose is prepared by dilution of the labeling reaction mixture in injection buffer (0.25 M Na-Acetate pH 7+0.05% Tween20). The ^177Lu-radiolabeled peptide was injected via the tail vein of the nu/nu mice (50 kBq per mouse), transplanted with the respective cell line. At indicated time points after injection the animals were sacrificed. Blood, heart, lung, spleen, liver, kidney, muscle, brain, femur, and the tumor were dissected, blotted dry, and weighed. The radioactivity was measured with a γ-counter (CobraII; Canberra Packard) along with a sample of the injection solution to calculate the percentage injected dose per gram of tissue (% ID/g).
(§4) The γ- and β-emitter ^177LuCl3 (NEZ307D, Perkin Elmer, in 0.04 M HCl), with a t1/2 of 6.7 days was used for both in vivo biodistribution and internalization studies. Labeling reactions were performed by adding 10 μL ^177LuCl3 (˜10 MBq) in 50 mM HCl, 2 μL of the diluted peptide (1 mM solution in 50 mM HEPES buffer pH 7+0.1% Tween 20 diluted from a 10 mM DMSO stock) to 50 μL 50 mM HEPES buffer pH 7 supplemented with 0.1% Tween 20. The reaction mixture was incubated at 98° C. for 10 minutes. The radiochemical yield (RCY) was determined using high performance liquid chromatography (HPLC) system equipped with a Latek P402 (Latek, Eppelheim, Germany), a HITACHI variable UV detector (absorbance was measured at 214 and 254 nm) and a gamma detector (Bioscan, WA, USA), using a Chromolith RP-18 column (100×4.6 mm; Merck). The analytical HPLC run was performed at 4 mL/min, using a linear A (0.1% trifluoroacetic acid (TFA) in water) to B (0.1% TFA in acetonitrile) gradient (0% B to 100% B in 6 min). Thin-layer chromatography was performed in parallel to confirm the results of the radio-HPLC. The RCY was generally >95%, and thus, the output of labelling reactions was directly diluted with the appropriate buffer and further unlabeled peptide if required, to use in subsequent experiments.
(§5) 5×10^6 cells of HT1080 were subcutaneously inoculated into the right trunk of male 6-week-old BALB/c nu/nu mice (Charles River Laboratories). The tumors were grown for approximately 1 week, to a maximum size of ˜200 mm^3. Respective doses were prepared by mixing a fixed quantity of 5 pmoles ^177Lu labelled peptides (at approx. 50 kBq) with different quantities of non-labelled peptide (derived from 1 mM stock solution in 0.25 M sodium acetate pH 7+0.05% Tween20) in 100 μL injection buffer (0.25 M sodium acetate pH 7+0.05% Tween20). 3 animals were used per dose and timepoint. Radiolabelled peptide solutions were injected via the tail vein, followed by sacrifice at various time points. Organs of interest (blood, heart, lung, spleen, liver, kidney, muscle, small intestine, brain, HT1080 tumor) were dissected, blotted dry, and weighed. The radioactivity was measured using a gamma counter and calculated as % ID/g.

The subject of series [2] is HT1080 tumor. The series is described as above. In kind it is in vivo, BALB/c nu/nu mice. The protocol:
as §1, §2, §3, §4, §5

Series [3] concerns the target MT1-MMP hemopexin domain (Homo sapiens, UniProt P50281). The series is described as follows: Fluorescence polarization direct binding / competition assay to MT1-MMP hemopexin domain. The protocol:
Direct Binding Fluorescence Polarization or Anisotropy Assays are performed by titrating a constant concentration of fluorescent tracer (here, the fluoresceinated bicyclic peptide to be studied) with its binding partner (here, the MT1-MMP hemopexin domain). As the concentration of binding partner increases during the titration, the polarization signal changes in proportion to the fraction of bound and unbound material. This allows determination of […] (Kd) quantitatively. Assay data can be fit using standard ligand binding equations.
Typically, concentrations of the tracer are ideally well below the Kd of the tracer: titrant pair, and concentrations chosen are usually at ˜1 nM or less. The titrant (binding partner) concentration is varied from 0.1 nM up to typically 5 μM. The range is chosen such that the maximum change in fluorescent polarization can be observed. Buffers employed are phosphate buffered saline in the presence of 0.01% Tween. Experiments were run in black 384 well low-bind/low volume plates (Corning 3820), and the fluorescent polarization signal was measured using a BMG Pherastar FS plate reader. Fluorescent tracers referred to in the text are bicyclic peptides that have been fluoresceinated using 5,6-carboxyfluorescein. Fluoresceination may be performed on the N-terminal amino group of the peptide, which is separated from the bicycle core sequence by a sarcosine spacer (usually Sar10 (SEQ ID NO: 73)). This can be done during Fmoc solid phase synthesis or post-synthetically (after cyclization with the molecular scaffold reagent and purification) if the N-terminal amino group is unique to the peptide. Fluoresceination can also be performed on the C-terminus, usually on a Lysine introduced as the first C-terminal residue, which is then separated from the bicycle core sequence by a sarcosine spacer (usually Sar6 (SEQ ID NO: 69)). Thus, N-terminal tracers can have a molecular format described as Fluo-Ala-Sar10-A (SEQ ID NO: 72) (BicycleCoreSequence), and (BicycleCoreSequence)-A-Sar6-K (Fluo) (SEQ ID NO: 67) for a C-terminally fluoresceinated construct.
Fluorescent tracers used in the Examples are A-(17-69)-A-Sar6-K (Fluo) (SEQ ID NO: 67), A-(17-69-07)-A-Sar6-K (Fluo) (SEQ ID NO: 67), and A-(17-69-12)-A-Sar6-K (Fluo) (SEQ ID NO: 67). Due to the acidic nature of the 17-69 fluorescent peptides, they were typically prepared as concentrated DMSO stocks, from which dilution were prepared in 100 mM Tris pH 8 buffer.
Due to their high affinities to the MT1-MMP Hemopexin domain (PEX), the fluoresceinated derivatives of 17-69-07 and 17-69-12 (denoted as 17-69-07-N040 and 17-69-12-N005, respectively) can be used for competition experiments (using FP for detection). […] Dissociation of the complex can be measured quantitatively, and the Kd of the competitor (titrant) to the target protein determined. The advantage of the competition method is that the affinities of non-fluoresceinated bicyclic peptides can be determined accurately and rapidly.
Subsequently, the non-fluorescent competitor bicyclic peptide (usually just the bicycle core sequence) is titrated, such that it displaces the fluorescent tracer from the target protein. The displacement of the tracer is measured and associated with a drop in fluorescence polarization. The drop in fluorescence polarization is proportional to the fraction of target protein bound with the non-fluorescent titrant, and thus is a measure of the affinity of titrant to target protein. […]
In general terms: In fluorescence polarisation assays a small probe gives low polarisation when free and higher when bound to something large.

Read-outs that look alike come from different tables or passages of the source. *1 amine or outer side, *2 acyl side, *3 side chain or, on linkers, in order; H or OH if unused. Where a SMILES comes first, the peptide text is derived from it. Bridges are numbered along the chain shown (N, C = ends). [ ]: non-standard residue; d: D form. The star is where a group is joined. DOTA = O=C(O)CN1CCN(CC(=O)O)CCN(CC(=O)*)CCN(CC(=O)O)CC1; 1Nal = N[C@@H](Cc1cccc2ccccc12)C(=O)O; TBMB = c1c(C[*:1])cc(C[*:3])cc1C[*:2]; Palmitoyl = CCCCCCCCCCCCCCCC(=O)*; Tle = CC(C)(C)[C@H](N)C(=O)O; βAla = NCCC(=O)O; Sar = CNCC(=O)O

As for `CCCCCCCCCCCCCCCC(=O)NCCC(=O)N(C)CC(=O)N(C)CC(=O)N(C)CC(=O)N(C)CC(=O)N(C)CC(=O)N[C@@H](CCCCNC(=O)CN1CCN(CC(=O)O)CCN(CC(=O)O)CCN(CC(=O)O)CC1)C(=O)N(C)CC(=O)N(C)CC(=O)N(C)CC(=O)N(C)CC(=O)N(C)CC(=O)N(C)CC(=O)N(C)CC(=O)N(C)CC(=O)N(C)CC(=O)N(C)CC(=O)N[C@@H](C)C(=O)N[C@H]1CSCc2cc3cc(c2)CSC[C@H](NC(=O)[C@@H](C)NC(=O)[C@H](Cc2cccc4ccccc24)NC(=O)[C@H](CCC(=O)O)NC(=O)[C@H](CC(N)=O)NC(=O)[C@@H](C)NC1=O)C(=O)N[C@@H](CCC(=O)O)C(=O)N[C@@H](CC(=O)O)C(=O)N[C@@H](Cc1ccccc1)C(=O)N[C@@H](Cc1ccc(O)cc1)C(=O)N[C@@H](CC(=O)O)C(=O)N[C@@H](C(C)(C)C)C(=O)N[C@H](C(N)=O)CSC3` [I-25] ({Palmitoyl-βAla}-[Sar][Sar][Sar][Sar][Sar]K(DOTA)[Sar][Sar][Sar][Sar][Sar][Sar][Sar][Sar][Sar][Sar]AC[dA]NE[1Nal][dA]CEDFYD[Tle]C-NH2; linker 18-24-31 via TBMB), the tissue to tissue ratio at 6 h in series [1] (HT1080 tumor / blood, 750 pmole/mouse, 6 hrs, read-out: tumour to blood signal ratio) came out at 19. Further, in series [1] (HT1080 tumor / blood, 750 pmole/mouse, 48 hrs, read-out: tumour to blood signal ratio), the tissue to tissue ratio at 48 h was found to be 97. In series [1] (HT1080 tumor, 750 pmole/mouse, 2 h p.i., read-out: tumour accumulation), the tissue uptake at 2 h came to 25 ± 1.61 %ID/g. Also, the tissue uptake at 6 h in series [1] (HT1080 tumor, 750 pmole/mouse, 6 h p.i., read-out: tumor uptake (maximum)) stood at 35.9 ± 1.11 %ID/g. For the same compound, the tissue uptake at 48 h in series [1] (HT1080 tumor, 177Lu-labelled, 48 hr p.i., 750-1000 pmole/mouse, read-out: tumour signal) is ~26 %ID/g; in series [1] (mouse, HT1080 tumor, 750 pmoles injected dose, 48 h p.i., read-out: tumor accumulation in HT1080 xenografts) it was 24.1 ± 2.5 %ID/g. The “signals in spleen, liver and small intestine” value in series [2] (177Lu-labelled, 48 hr p.i.) is < 4.5%. This compound also returned a Kd in series [3] of 2.25 ± 0.5 nM.
`C[C@H](NC(=O)CN(C)C(=O)CN(C)C(=O)CN(C)C(=O)CN(C)C(=O)CN(C)C(=O)CN(C)C(=O)CN(C)C(=O)CN(C)C(=O)CN(C)C(=O)CN(C)C(=O)CCNC(=O)CN1CCN(CC(=O)O)CCN(CC(=O)O)CCN(CC(=O)O)CC1)C(=O)N[C@H]1CSCc2cc3cc(c2)CSC[C@H](NC(=O)[C@@H](C)NC(=O)[C@H](Cc2cccc4ccccc24)NC(=O)[C@H](CCC(=O)O)NC(=O)[C@H](CC(N)=O)NC(=O)[C@@H](C)NC1=O)C(=O)N[C@@H](CCC(=O)O)C(=O)N[C@@H](CC(=O)O)C(=O)N[C@@H](Cc1ccccc1)C(=O)N[C@@H](Cc1ccc(O)cc1)C(=O)N[C@@H](CC(=O)O)C(=O)N[C@@H](C(C)(C)C)C(=O)N[C@H](C(N)=O)CSC3` [I-24] ({DOTA-βAla}-[Sar][Sar][Sar][Sar][Sar][Sar][Sar][Sar][Sar][Sar]AC[dA]NE[1Nal][dA]CEDFYD[Tle]C-NH2; linker 12-18-25 via TBMB): the tissue uptake at 1 h in series [1] (mouse, HT1080 tumor, 1 h p.i. of 150 pmoles) stood at 7.04 ± 2.83 %ID/g. Moreover, in series [2] (1 h post injection), the “blocking of tumor uptake at a dose of 500 pmoles” value is “slightly blocked”, the “blocking of tumor uptake using 5 nmoles” value is listed as “nearly completely blocked”, the “signal in the tumor compared to I-23” value is given as “slightly lower” and the “tumor uptake compared to 17-69-07-N144” value was “significantly greater”. The same compound yielded a Kd in series [3] of 1.37 ± 0.53 nM.

By Kd is commonly meant the free concentration of one partner at which half of the binding sites on the other are occupied at equilibrium, for simple one-to-one binding. The low end stands for a tighter complex, the high end for a looser complex.

Values taken from US12552837B2, “Bicyclic peptide ligands with detectable moieties and uses thereof” (BicycleRD Limited, priority 2017, dated 2026).
